Data on two molecules can be found in US20230052168A1 (ROYAL COLLEGE OF SURGEIONS IN IRELAND, published 2023).

Positions count from the first letter of the chain named. Names and notes keep the numbering of the source.

Assay [1] has as its target T1, protein C (zymogen) (UniProt P04070 43-461).
T1 construct: also called PC
Kind of assay: inferred from APC generation assay on endothelial cells with E86A control. How it is done:
(§1) Protein C (100 nM) and thrombin (5 nM) were added with h-sEPCR^Snoop (1 μM) or h-sEPCR-E86A^Snoop (1 μM) an sEPCR variant unable to bind to PC/APC, then incubated for 30 minutes. […] The net effect of this restriction of APC generation. Statistical analysis of experimental data was performed using one-way ANOVA and Tukey's multiple comparison post hoc analysis. ns signifies non-significant, * signifies a p value of <0.05.
(§2) Assessment of h-sEPCR^Snoop Inhibition of Protein C Activation by the Thrombin-Thrombomodulin Complex on Endothelial Cells Protein C (100 nM) and thrombin (5 nM) were added with h-sEPCR^Snoop (1 μM) or h-sEPCR-E86ASnoop (1 μM) an sEPCR variant unable to bind to PC/APC, then incubated for 30 minutes. […] The net effect of this restriction of APC generation. Statistical analysis of experimental data was performed using one-way ANOVA and Tukey's multiple comparison post hoc analysis. ns signifies non-significant, * signifies a p value of <0.05 (see FIG. 5).

The target in assay [2] is T1, protein C (zymogen). Kind of assay: control in APC generation assay on endothelial cells (protein C 100 nM, thrombin 5 nM). Here is the method: as §1, §2

T1 sequence (P04070 43-461): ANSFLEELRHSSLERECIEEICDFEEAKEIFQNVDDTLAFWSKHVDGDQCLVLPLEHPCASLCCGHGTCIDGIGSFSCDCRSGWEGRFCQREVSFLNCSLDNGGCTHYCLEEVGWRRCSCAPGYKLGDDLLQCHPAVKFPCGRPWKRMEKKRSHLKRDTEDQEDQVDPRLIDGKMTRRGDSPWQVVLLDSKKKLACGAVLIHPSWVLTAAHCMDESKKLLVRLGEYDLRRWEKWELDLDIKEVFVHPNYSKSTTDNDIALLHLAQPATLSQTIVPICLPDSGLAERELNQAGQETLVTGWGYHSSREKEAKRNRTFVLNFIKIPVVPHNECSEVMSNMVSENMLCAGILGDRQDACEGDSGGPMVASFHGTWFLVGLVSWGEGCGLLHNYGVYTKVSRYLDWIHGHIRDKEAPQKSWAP

B1: h-sEPCR^Snoop (recombinant human soluble endothelial cell protein C receptor with GSGGSG linker, SnoopTag and C-terminal His-tag) (receptor)
chain: SQDASDGLQRLHMLQISYFRDPYHVWYQGNASLGGHLTHVLEGPDTNTTIIQLQPLQEPESWARTQSGLQSYLLQFHGLVRLVHQERTLAFPLTIRCFLGCELPPEGSRAHVFFEVAVNGSSFVSFRPERALWQADTQVTSGVVTFTLQQLNAYNRTRYELREFLEDTCVQYVQKHISAENTKGSQTSRSYTSGSGGSGKLGDIEFIKVNKHHHHHH
notes: Expressed in HEK293 cells, purified on nickel; The printed entry still carries the N-terminal signal peptide; also called human sEPCR^Snoop; r-sEPCR
For the molecule B1, in the assay with protein C (zymogen) [1], the binding result was “binds”.

B2: h-sEPCR-E86A^Snoop (receptor)
chain: B1 chain with E86A
Consider B2, for which the binding result with protein C (zymogen) [2] is listed as “no binding (tested: 1 µM)”.
